The values that follow are results of earlier work, collected in paper PMC3310390.

The term Kd denotes the constant that tells how readily two partners part at equilibrium.

Data set [1] deals with Sir3 (Saccharomyces cerevisiae) (UniProt P06701).
The target is the same in data set [2]. The source holds these as a separate data set.
Data set [3] has the same target. The source holds these as a separate data set.

Where two headings read alike, the source gives them in different places.

Take Sir2/Sir4 complex (from UniProt P06700): in data set [1], the dissociation constant Kd is 0.03 nM.

As for Sir2 (from UniProt P06700), in data set [2], the Kd was 60 nM.

On to Sir3 (from UniProt P06701), for which the dissociation constant (Kd) in data set [3] is 2 nM.
